Laboratory results published in patent US9815881B2, “Method of inducing labor or treating pre-eclampsia by administering relaxin analogs” (The Board of Trustees of the Leland Stanford Junior …, priority 2009, dated 2017).
“Also recorded” adds a separate entry of the source. Blank lines part the entries; values can stand above or below the molecule they belong to. Where no end group is shown, it is not given here.

Experiments:
LGR8 [1] = biological target: T1, LGR8 (Homo sapiens, UniProt Q8WXD0); test: Receptor-activation analysis: cAMP production in LGR8-expressing HEK293T cells; format: cell-based; conditions: for LGR8-activation activity (result in words): LGR8-expressing HEK293T cells
T1 construct: HEK293T cells stably expressing recombinant LGR7 or LGR8; expressed in transfected cells
T1 sequence (Q8WXD0 whole entry): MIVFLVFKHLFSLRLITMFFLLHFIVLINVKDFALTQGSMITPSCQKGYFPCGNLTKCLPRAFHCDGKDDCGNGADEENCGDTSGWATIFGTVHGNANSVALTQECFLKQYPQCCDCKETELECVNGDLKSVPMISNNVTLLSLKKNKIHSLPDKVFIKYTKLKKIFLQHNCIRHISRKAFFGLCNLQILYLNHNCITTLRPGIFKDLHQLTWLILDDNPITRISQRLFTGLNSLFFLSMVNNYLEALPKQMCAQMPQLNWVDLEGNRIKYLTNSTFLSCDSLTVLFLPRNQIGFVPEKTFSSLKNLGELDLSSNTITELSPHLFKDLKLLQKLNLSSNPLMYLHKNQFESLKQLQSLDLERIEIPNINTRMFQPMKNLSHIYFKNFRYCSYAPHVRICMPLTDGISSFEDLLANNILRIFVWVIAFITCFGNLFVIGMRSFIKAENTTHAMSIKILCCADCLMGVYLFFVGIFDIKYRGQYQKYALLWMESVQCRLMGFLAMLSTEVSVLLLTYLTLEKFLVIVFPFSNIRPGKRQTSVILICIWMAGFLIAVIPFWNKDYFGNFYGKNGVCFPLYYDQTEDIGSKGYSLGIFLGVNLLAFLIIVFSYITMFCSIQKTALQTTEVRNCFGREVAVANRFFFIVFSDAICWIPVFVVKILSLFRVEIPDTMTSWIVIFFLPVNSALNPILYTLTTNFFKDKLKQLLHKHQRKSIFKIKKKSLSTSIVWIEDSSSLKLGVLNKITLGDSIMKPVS
Protocol: (§1) The bioactivity of relaxin family peptides was determined based on the stimulation of adenylate cyclase activity in HEK293T cells stably expressing recombinant LGR7 or LGR8. Stable LGR7- or LGR8-expressing cells were maintained in Dulbecco's modified Eagle's medium/F-12 media supplemented with […] Zeocin (Invitrogen). After seeding at a density of 2×10^5 cells per well in 500 μl of Dulbecco's modified Eagle's medium/F-12 medium containing 0.1% bovine serum albumin in 48-well plates, cells were preincubated at 37° C. for 30 min in the presence of 0.25 mM 3-isobutyl-1-methylxanthine before treatment with increasing concentrations of peptides (from 0 to 100 nM) in quadruplicate. Twelve hours after treatment, the culture was reacted with acetic anhydride/triethylamine, and total cAMP content in cell lysates was measured using a specific cAMP radioimmunoassay. A nontagged human RLN2 peptide was used as a standard to verify the bioactivity of tagged RLN2 peptides.
(§2) Receptor-activation and receptor binding activity curves generated in nonlinear regression analyses (Prism; GraphPad Software, San Diego, Calif.) were evaluated relative to the samples without hormone treatment. In all cases data are reported as the mean±S.E. of assays in triplicate or quadruplicate. Statistically significant responses (p<0.05) were determined for each stimulated response to the average nonspecific response from control samples using analysis of variance and Student's t test.

LGR7 [2] = biological target: T2, LGR7 (Homo sapiens, UniProt Q9HBX9); test: Receptor-binding assay: competition for 125I-labeled RLN2 binding to LGR7-expressing HEK293T cells; conditions: for LGR7-binding activity (result in words): competition for labeled RLN2 binding to LGR7
T2 construct: HEK293T cells stably expressing recombinant LGR7 or LGR8; expressed in transfected cells
T2 sequence (Q9HBX9 1-757): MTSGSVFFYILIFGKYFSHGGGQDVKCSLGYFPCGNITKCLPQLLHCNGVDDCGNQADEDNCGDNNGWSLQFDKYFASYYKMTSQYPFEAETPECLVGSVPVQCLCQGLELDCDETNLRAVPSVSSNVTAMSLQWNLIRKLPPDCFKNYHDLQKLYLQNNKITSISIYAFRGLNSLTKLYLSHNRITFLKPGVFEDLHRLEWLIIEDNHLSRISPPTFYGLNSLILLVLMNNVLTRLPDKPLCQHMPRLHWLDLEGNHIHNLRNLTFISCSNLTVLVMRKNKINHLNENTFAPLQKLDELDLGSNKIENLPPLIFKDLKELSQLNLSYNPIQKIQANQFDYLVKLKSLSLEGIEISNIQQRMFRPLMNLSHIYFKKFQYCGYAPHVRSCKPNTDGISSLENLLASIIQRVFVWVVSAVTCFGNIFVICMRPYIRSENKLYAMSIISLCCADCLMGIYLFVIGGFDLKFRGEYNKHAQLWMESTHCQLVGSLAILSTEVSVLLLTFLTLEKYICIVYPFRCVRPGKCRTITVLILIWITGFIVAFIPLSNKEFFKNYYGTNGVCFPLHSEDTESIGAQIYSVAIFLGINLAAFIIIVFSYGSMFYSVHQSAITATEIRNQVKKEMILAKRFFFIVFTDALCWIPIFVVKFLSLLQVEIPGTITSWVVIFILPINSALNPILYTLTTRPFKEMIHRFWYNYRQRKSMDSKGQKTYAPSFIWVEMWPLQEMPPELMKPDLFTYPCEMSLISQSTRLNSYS
Protocol: (§3) To determine the binding characteristics of wild type and mutant peptides, HEK293T cells expressing LGR7 or LGR8 were grown to 90% confluence, collected by centrifugation at 3000×g for 2 min, and washed two times in 2 ml of ice-cold binding buffer. Cells were resuspended in ice-cold binding buffer, and aliquots of cell suspension were incubated with increasing doses of purified recombinant peptides in the presence of 0.025 pmol of ^125I-labeled RLN2 tracer (Phoenix Pharmaceuticals, Burlingame, Calif.) at room temperature for 2 h. After washing three times in an ice-cold binding buffer, radioactivity bound to the cells was measured using a γ-counter (EG&G Wallace, Gaithersburg, Md.). Total binding was determined in the absence, and nonspecific binding in the presence, of 25 nmol of unlabeled RLN2. In regular assays, total binding was ˜30,000 cpm, and nonspecific binding amounted to less than 20% of the total binding. Data points were collected in triplicate, and similar results were obtained in at least two independent assays.
as §2

LGR8 [3] = biological target: T1, LGR8; test: Receptor-binding assay: competition for 125I-labeled RLN2 binding to LGR8-expressing HEK293T cells; conditions: for LGR8-binding activity (result in words): competition for labeled RLN2 binding to LGR8
Protocol: as §3, §2

LGR7 [4] = biological target: T2, LGR7; test: Receptor-activation analysis: cAMP production in LGR7-expressing HEK293T cells; format: cell-based; conditions: for LGR7-activation activity (result in words): LGR7-expressing HEK293T cells
Protocol: as §1, §2

Molecule: RLN2 C-8: Myc- and His6-tagged RLN2 from construct with a truncated C-domain of 8 amino acids (chain 1 SWMEEVIKLCGRELVRAQIAICGMSTWSHHHHHH; chain 2 QLYSALANKCCHVGCTKRSLARFC; ends and bridges not checked; also: Myc tag, not in given chain)
LGR7-binding activity (result in words) (LGR7 [2]): high affinity

Molecule: RLN2 P^A23A: RLN2 mutant with alanine substitution at the PheA23 position (chain 1 SWMEEVIKLCGRELVRAQIAICGMSTWSHHHHHH; chain 2 QLYSALANKCCHVGCTKRSLARAC; not fully specified; ends and bridges not checked)
LGR7-activation activity (result in words) (LGR7 [4]; listed as FA23A): preferentially activate LGR7
LGR7-activation activity (result in words) (LGR7 [4]; listed as RLN2 FA23A): retains an LGR7-activation activity similar to that of wild type peptides
LGR8-activation activity (result in words) (LGR8 [1]; listed as RLN2 FA23A): lacks an LGR8-activation activity
LGR8-activation activity (result in words) (LGR8 [1]; listed as RLN2 F^A23A): ablated
LGR7-binding activity (result in words) (LGR7 [2]; listed as RLN2 FA23A): affinities similar to that of wild type peptides
LGR7-binding activity (result in words) (LGR7 [2]; listed as RLN2 F^A23A): without an effect on LGR7-binding activity
LGR8-binding activity (result in words) (LGR8 [3]; listed as RLN2 FA23A): significantly reduced the affinity for LGR8
LGR8-binding activity (result in words) (LGR8 [3]; listed as RLN2 F^A23A): significantly reduced

The next lines start with results.

LGR7-binding activity (result in words) (LGR7 [2]): reduced affinity for LGR7
LGR8-binding activity (result in words) (LGR8 [3]): lost its LGR8-binding activity
Molecule: RLN2^A22-23: RLN2 mutant with alanine substitution at the A22-23 region of the A chain (chain 1 SWMEEVIKLCGRELVRAQIAICGMSTWSHHHHHH; chain 2 QLYSALANKCCHVGCTKRSLAAAC; not fully specified; ends and bridges not checked)
LGR8-activation activity (result in words) (LGR8 [1]): ablates LGR8, but not LGR7, activation activity; also recorded: almost abolished

LGR7-activation activity (result in words) (LGR7 [4]): minimal effect
LGR8-activation activity (result in words) (LGR8 [1]): minimal effect
Molecule: RLN2 R^A22A: RLN2 mutant with alanine substitution at the ArgA22 position (chain 1 SWMEEVIKLCGRELVRAQIAICGMSTWSHHHHHH; chain 2 QLYSALANKCCHVGCTKRSLAAFC; not fully specified; ends and bridges not checked)
LGR7-binding activity (result in words) (LGR7 [2]): affinities similar to that of wild type peptides

pEC50 on the activation of LGR7 (LGR7 [4]; HEK293T cells stably expressing LGR7, mean ± S.E., ND = pEC50 not measurable): 9.30 ± 0.04
pEC50 on the activation of LGR8 (LGR8 [1]; HEK293T cells stably expressing LGR8, mean ± S.E., ND = pEC50 not measurable): 7.41 ± 0.14
pIC50 in competition for RLN2 binding to LGR7 (LGR7 [2]; 125I-labeled RLN2 tracer, LGR7-expressing HEK293T cells, mean ± S.E.): 8.72 ± 0.06
pIC50 in competition for RLN2 binding to LGR8 (LGR8 [3]; 125I-labeled RLN2 tracer, LGR8-expressing HEK293T cells, mean ± S.E., ND = pIC50 not measurable): 7.90 ± 0.16
B1: WT RLN2: recombinant tagged wild type human relaxin H2 (RLN2) (protein, listed as Homo sapiens)
chain: MPRLFFFHLLGVCLLLNQFSRAVADSWMEEVIKLCGRELVRAQIAICGMSTWSKRSLSQEDAPQTPRPVAEIVPSFINKDTETINMMSEFVANLPQELKLTLSEMQPALPQLQQHVPVLKDSSLLFEEFKKLIRNRQSEAADSSPSELKYLGLDTHSRKKRQLYSALANKCCHVGCTKRSLARFC
modifications: tag; RLN2 polypeptide
LGR7-activation activity (result in words) (LGR7 [4]): activates both receptors at the nanomolar range
LGR8-activation activity (result in words) (LGR8 [1]): activates both receptors at the nanomolar range
